For this assay, the target named is GCN4 leucine zipper (aa 245-285) fused C-terminal to LexA (yeast). As to the kind of experiment: cell-based or functional assay.

Turning to “Gal4 AD-anti-GCN4 (H-R66K) scFv (from UniProt P04386 768-881)”, the growth on -Trp/-Leu/-His plates with 3-AT (HIS3 reporter, two hybrid) came to 20 mM 3-AT.

Values taken from US20030096306A1.
